Experiments:
RPE-J cells = assay: Immunoblots for autophagy/lysosomal proteins in transfected RPE-J cells; assay type: cell-based, rat; settings: RPE-J cells over-expressing CIB2 vs GFP
Excerpt: FIG. 12. CIB2 mutant mice have less autophagy/lysosomal proteins, and overexpression of CIB2. in vitro, is sufficient to boost levels of autophagy/lysosomal proteins and clearance of opsin. a. […] Pro-cathepsin D levels were quantified from non-saturated exposures. c. Representative immunoblots for indicated autophagy/lysosomal proteins from RPE-J cells transiently transfected with GFP or CIB2-IRES-GFP. Endogenous CIB2 is observable in long exposure immunoblot, while transiently overexpressed CIB2 is readily observable in short exposure immunoblot. d. Quantification for immunoblots shown in (c). n=5 (LAMP-1) or 4 (ATG5-ATG12) independent transfection experiments. e, Schematic of the pulse-chase phagocytosis assay (left panel)—also see Examples below. […]
Complementary to the findings of Cib2 mutant mice, over-expressing CIB2 in RPE-J cells increased LAMP-1 and ATG5-ATG12 complex proteins levels (FIG. 12c-d). […] To test this idea, we assessed LC3-II flux. LC3-I is a cytosolic protein which when lipidated with a phosphatidylethanolamine adduct (LC3-II form) localizes to the growing auto/phagosome membrane, and thus can be used as a reliable readout for the dynamic autophagic process (Valapala et al., Autophagy 10, 480-496 (2014); Kim et al., Noncanonical Autophagy Promotes the Visual Cycle. Cell 154, 365-376 (2013); Klionsky et al., Autophagy 12, 1-222 (2016)). […]

Raptor = Raptor (Homo sapiens, UniProt Q8N122); assay: NanoSPD (nanoTRAP) interaction assay in COS-7 cells, Raptor; assay type: binding; design: HA (N); mCherry (N); settings: filopodia tip co-accumulation
Chain of Raptor (Q8N122 whole entry): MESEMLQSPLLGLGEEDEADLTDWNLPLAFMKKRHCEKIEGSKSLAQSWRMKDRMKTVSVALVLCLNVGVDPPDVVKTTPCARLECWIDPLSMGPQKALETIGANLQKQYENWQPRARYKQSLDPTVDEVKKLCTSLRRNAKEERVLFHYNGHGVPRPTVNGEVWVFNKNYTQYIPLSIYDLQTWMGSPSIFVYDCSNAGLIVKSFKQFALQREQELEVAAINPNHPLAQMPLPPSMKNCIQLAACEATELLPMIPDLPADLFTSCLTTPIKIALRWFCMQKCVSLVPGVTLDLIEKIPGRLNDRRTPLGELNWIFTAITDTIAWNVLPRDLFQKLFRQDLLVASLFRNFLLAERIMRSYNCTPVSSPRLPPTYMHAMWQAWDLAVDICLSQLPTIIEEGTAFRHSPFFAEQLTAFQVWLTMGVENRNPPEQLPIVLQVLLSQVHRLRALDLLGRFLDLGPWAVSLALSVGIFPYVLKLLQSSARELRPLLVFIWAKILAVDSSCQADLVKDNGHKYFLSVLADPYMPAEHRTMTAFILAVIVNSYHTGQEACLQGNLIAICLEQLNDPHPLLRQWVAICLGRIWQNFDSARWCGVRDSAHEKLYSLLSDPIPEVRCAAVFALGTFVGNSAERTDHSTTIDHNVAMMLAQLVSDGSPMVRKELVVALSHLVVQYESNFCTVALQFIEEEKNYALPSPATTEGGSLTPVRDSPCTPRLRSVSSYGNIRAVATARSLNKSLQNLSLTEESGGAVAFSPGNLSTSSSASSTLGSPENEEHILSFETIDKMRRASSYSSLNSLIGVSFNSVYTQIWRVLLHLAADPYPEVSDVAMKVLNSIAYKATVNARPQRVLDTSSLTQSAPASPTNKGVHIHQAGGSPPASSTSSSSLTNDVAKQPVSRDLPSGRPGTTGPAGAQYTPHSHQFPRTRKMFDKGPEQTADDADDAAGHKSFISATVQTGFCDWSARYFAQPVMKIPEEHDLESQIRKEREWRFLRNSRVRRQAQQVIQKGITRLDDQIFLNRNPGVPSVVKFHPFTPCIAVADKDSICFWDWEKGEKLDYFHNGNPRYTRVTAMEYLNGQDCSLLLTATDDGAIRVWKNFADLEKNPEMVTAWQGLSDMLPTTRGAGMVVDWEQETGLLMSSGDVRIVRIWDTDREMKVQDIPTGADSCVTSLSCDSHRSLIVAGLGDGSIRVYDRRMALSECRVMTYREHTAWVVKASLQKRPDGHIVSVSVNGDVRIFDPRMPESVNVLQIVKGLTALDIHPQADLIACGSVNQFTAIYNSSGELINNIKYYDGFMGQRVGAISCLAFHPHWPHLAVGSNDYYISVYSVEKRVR
Excerpt: (§1) FIG. 14. […] Arrowheads indicate filopodia tip accumulation of hCIB2-eGFP, * indicates no accumulation of indicted constructs in the red channel. c. Representative confocal images (top panel) showing CIB2 (green) interaction with Rheb (red) and Raptor (red) using NanoTRAP assay. […] Arrowheads indicate filopodia tip accumulation of indicated constructs, * indicates no accumulation of indicted construct in the red or far-red channel. Scale bar: 10 μm. d. Quantification for nanoTRAP assay for images shown above. *** p<0.001 by one-way ANOVA. e, Co-IP experiments show interaction between Raptor and CIB2.
(§2) To reveal the molecular mechanism of CIB2-mediated mTORC1 modulation, we focused on the TSC-Rheb-mTORC1 axis. We performed an interaction screen of specific proteins including TSC1, TSC2, mTORC1-specific subunit Raptor, mTOR kinase, and Rheb. We used a recently-published quantitative interaction assay known as nanoscale pulldown 2.0 (NanoSPD), in which eGFP-nanobody tag fused to the myosin-HMM domain (nanoTRAP) preferentially migrates to the filopodia (Bird et al., Molecular Biology of the Cell 28, 463-475 (2017)). CIB2-eGFP (bait) migrated efficiently to filopodia in COS-7 cells only in the presence of the nanoTRAP. […] Many downstream and upstream targets of mTORC1 regulate its activity via binding to the mTORC1-specific subunit Raptor. […]

Rheb = Rheb (Homo sapiens, UniProt Q15382); assay: NanoSPD (nanoTRAP) interaction assay in COS-7 cells, Rheb; assay type: binding; design: host or cells: COS-7; settings: filopodia tip co-accumulation
Chain of Rheb (Q15382 whole entry): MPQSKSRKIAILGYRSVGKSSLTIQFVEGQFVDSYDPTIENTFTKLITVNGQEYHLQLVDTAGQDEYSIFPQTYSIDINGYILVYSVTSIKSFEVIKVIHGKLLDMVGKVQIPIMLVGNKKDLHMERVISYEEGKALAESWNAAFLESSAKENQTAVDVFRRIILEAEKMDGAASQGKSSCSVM
Excerpt: as §1, §2

Interaction with Raptor (NanoSPD) (Raptor): interacts with CIB2
Interaction with Rheb (NanoSPD) (Rheb): interacts with Rheb
B1: CIB2: calcium and integrin binding protein 2, over-expressed in cells from plasmid constructs; SEQ ID NO:1 (human), SEQ ID NO:2 (mouse) (protein)
chain: MGNKQTIFTEEQLDNYQDCTFFNKKDILKLHARFYELAPNLVPMDYRKSPIVHVPMSLIIQMPELRENPFKERIVEAFSEDGEGNLTFNDFVDMFSVLCESAPRELKANYAFKIYDFNTDNFICKEDLEMTLARLTKSELEEDEVVLVCDKVIEEADLDGDGKLGFADFEDMIAKAPDFLSTFHIRI
modifications: left off: large carriers
ATG5-ATG12 complex protein levels (RPE-J cells): increased
LAMP-1 protein levels (RPE-J cells): increased

Source: patent publication US12661385B2, “Modulation of mTORCI activity and autophagy via CIB2-RHEB interaction” (University of Maryland, Baltimore, priority 2018, dated 2026)
